The experiment addresses B lymphoma cell lines Raji or Daudi (CD20 and CD22). As to the kind of experiment: FACS on Raji cells, Alexa Fluor 488 anti-human IgG1, MFI; binder is a 1:1 mixture.

As usually defined, the EC50 is the concentration needed to bring the measured effect to its halfway point. As to Epratuzumab/ Ofatumumab (1:1), the EC50 came out at 3.25 nM.

The values above are taken from patent US20230220080A1.
